Here are results for 3 molecules from patent US20170362330A1.

For experiment [1], the target named is human CD46 (human) (UniProt P15529). The experiment is described as follows: FACS on Du-145 cells, 4 °C overnight, MFI curve fit.
Experiment [2] addresses human CD46 (human), P15529. The experiment is described as follows: cell-based or functional assay.
The target in experiment [3] is human CD46 (human) (UniProt P15529). Kind of experiment: FACS on CHO cells transfected with human CD46, 4 °C overnight, MFI curve fit.
Experiment [4] has the same target. The experiment is described as follows: FACS on CHO-huCD46 cells, 4 C overnight, MFI against antibody concentration.

Chain of human CD46 (human) (P15529 35-392): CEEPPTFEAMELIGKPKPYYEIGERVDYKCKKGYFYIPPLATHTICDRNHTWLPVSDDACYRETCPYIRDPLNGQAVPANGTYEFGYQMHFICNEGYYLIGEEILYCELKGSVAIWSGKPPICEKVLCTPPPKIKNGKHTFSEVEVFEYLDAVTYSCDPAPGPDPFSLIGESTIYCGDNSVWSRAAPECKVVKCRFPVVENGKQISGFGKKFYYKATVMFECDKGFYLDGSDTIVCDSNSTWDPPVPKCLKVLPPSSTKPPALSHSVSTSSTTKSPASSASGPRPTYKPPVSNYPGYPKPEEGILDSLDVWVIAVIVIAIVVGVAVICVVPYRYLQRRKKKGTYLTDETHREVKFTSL
Chain of human CD46 (human), P15529 (P15529 35-392): as above

B1: YS12 (antibody, V domains shown)
VH: QVQLVESGGGVVQPGRSLRLSCAASGFTFSTYGMHWVRQAPGKGLEWLSFISYDGDEKYYADSVKGRFTISRDNSKNTLYLQMNSLRAEDTAVYWCAKASGYGMGILDYWGQGTLVTVSS
VL: SSELTQDPAVSVALGQTVRITCQGDSLRSYYVSWFQQKPGQAPVFVMYGQNNRPSGISERFSGSSSGNTASLIITGAQAEDEADYYCHSRDSSGTHLRVFGGGTKLTVL
In the experiment with human CD46 (human) [1], B1 yielded a Kd of 0.043 nM.

B2: YS5-mcvcpab-MMAF (protein)
VH: QVQLVQSGGGVVQPGRSLRLACAASGLTVNNYAMHWVRQAPGKGLEWVAVISYDGNNKYYADSVKGRFTISRDNSKNTLYLQMNSLRAEDTAVYYCAKGGGYFDLWGRGTLVTVSS
VL: QSVLTQPPSVSGAPGQRVTISCTGSSSNIGAGYDVHWYQQLPGTAPKLLIYGNNNRPSGVPDRFSGSKSGTSASLAITGLQAEDEADYYCSSYTSGTWLFGGGTKLTVL
modifications: here or on the partner: monomethyl auristatin F (MMAF) conjugated via the MC-vc-PAB linker, on average about 3 drugs per antibody molecule; attachment residues not stated
On to B2, for which, in experiment [2], the EC50 of cell killing, LNCaP C4-2B cells with prior exposure to abiraterone (CD46 upregulated), 96 hours was determined as 21 pM; the EC50 of cell killing, LNCaP C4-2B cells without prior exposure to abiraterone, 96 hours came to 169 pM; the cytotoxic activity on H660 cells in vitro (Calcein AM viability, 7 days) is less than 1 nM; the fold drop of killing EC50 on H660 cells after enzalutamide treatment fell in the range of 4 to 5 fold.

B3: YS5 (antibody, V domains shown)
VH: QVQLVQSGGGVVQPGRSLRLACAASGLTVNNYAMHWVRQAPGKGLEWVAVISYDGNNKYYADSVKGRFTISRDNSKNTLYLQMNSLRAEDTAVYYCAKGGGYFDLWGRGTLVTVSS
VL: QSVLTQPPSVSGAPGQRVTISCTGSSSNIGAGYDVHWYQQLPGTAPKLLIYGNNNRPSGVPDRFSGSKSGTSASLAITGLQAEDEADYYCSSYTSGTWLFGGGTKLTVL
B3: the Kd with human CD46 (human) [3] was determined as 0.867 nM; with human CD46 (human) [1], 2.19 nM. Moreover, the EC50 (read off the curve) with human CD46 (human) [4] is 1 nM.

In general, Kd refers to a measure of binding affinity in units of concentration. A low value points to higher affinity. What is called EC50 (read off the curve) is the concentration at which the effect is half-maximal. A high value points to a less potent agent.
